Measured values from PMC8257627.
Blank lines part the entries; values can stand above or below the molecule they belong to.

What was measured:
AF10PZP WT (mouse) = experiment: fluorescence polarization; settings: S1/2, FP: 25 mM Tris-HCl pH 7.5, 75 mM NaCl, 0.00625% Tween20, 5 mM DTT, 5 nM NCP, NCP EMSA: 25 mM Tris pH 7.5, 75 mM NaCl, 10% glycerol, 0.005% Tween 20, 4 C, DNA …
[1] = target: nucleosome core particle reconstituted with 207 bp DNA (NCP207) (human) (UniProt P0C0S8); experiment: fluorescence polarisation; 5 nM fluorescein-labelled NCP with increasing AF10PZP WT or mutants; 75 mM NaCl, 25 mM Tris-HCl pH 7.5, 0.00625% Tween20, 5 mM DTT; fit to a binding isotherm, S1/2
AF10PZP D43K (mouse) = experiment: fluorescence polarization; settings: 75 mM NaCl; S1/2; FP: 25 mM Tris-HCl pH 7.5, 75 mM NaCl, 0.00625% Tween20, 5 mM DTT, 5 nM NCP; NCP EMSA: 25 mM Tris pH 7.5, 75 mM NaCl, 10% glycerol, 0.005% Tween 20, 4 C; DNA …
AF10PZP E179K (mouse) = experiment: fluorescence polarization; settings: 75 mM NaCl; S1/2; FP: 25 mM Tris-HCl pH 7.5, 75 mM NaCl, 0.00625% Tween20, 5 mM DTT, 5 nM NCP; NCP EMSA: 25 mM Tris pH 7.5, 75 mM NaCl, 10% glycerol, 0.005% Tween 20, 4 C; DNA …
[2] = target: nucleosome reconstituted with 147 bp 601 DNA (NCP147) (human) (UniProt P0C0S8); experiment: fluorescence polarisation; 5 nM fluorescein-labelled NCP with increasing AF10PZP WT or mutants; 75 mM NaCl, 25 mM Tris-HCl pH 7.5, 0.00625% Tween20, 5 mM DTT; fit to a binding isotherm, S1/2
[3] = target: nucleosome core particle reconstituted with 207 bp DNA (NCP207), P0C0S8;P62807;Q71DI3;P62805; experiment: fluorescence anisotropy; settings: chain shown with the change

Molecule: 207 bp 601 DNA
K half (AF10PZP WT (mouse)): 8 µM

S1/2 [1]: 9 µM
Molecule: AF10PZP D43K mutant (aa 19–208) (from UniProt O54826 19-208) (domain or fragment)

S1/2 [1]: 14 µM
Molecule: AF10PZP E179K mutant (aa 19–208) (from UniProt O54826 19-208) (domain or fragment)

Molecule: NCP147
K half (AF10PZP WT (mouse); 75 mM NaCl): 15 µM

Molecule: NCP207
K half (AF10PZP D43K (mouse)): 9 µM
K half (AF10PZP E179K (mouse)): 14 µM
K half (AF10PZP WT (mouse); 75 mM NaCl): 6 µM

S1/2 [2]: 15 µM
S1/2 [1]: 6 µM
Molecule: PZP domain of AF10 (AF10PZP, aa 19–208), wild type (from UniProt O54826 19-208) (domain or fragment)

Kd [3]: 9 µM
B1: PZP domain of AF10 (AF10PZP, aa 19–208), wild type, O54826 D43K (protein)
chain: KEMIGGCCVCSDERGWAENPLVYCKGHGCSVAVHQACYGIVQVPTGPWFCRKCESQERAARVRCELCPHKDGALKRTDNGGWAHVVCALYIPEVQFANVSTMEPIVLQSVPHDRYNKTCYICDEQGRESKAATGACMTCNKHGCRQAFHVTCAQFAGLLCEEEGNGADNVQYCGYCKYHFSKLKKSKRGS
